Here are results for 34 sequences from the Immune Epitope Database (IEDB).

Some results are limits rather than exact numbers.

One may read the Kd as the concentration at which binding is half-saturated.

One assay addresses HLA-A*02:03. Put plainly: IEDB peptide-MHC binding, purified MHC/competitive/radioactivity; filed as Kd, often an IC50 or EC50 that approximates it; ≥ and ≤ were set here for values at or beyond the usual limits of such assays.
For assay [1], the target named is HLA-A*02:01. Described as above.
A further assay concerns the target HLA-A*68:02. The description is as above.
The target in a further assay is HLA-A*02:06. Described as above.
Another assay deals with HLA-A*02:02. The description is as above.
For a further assay, the target named is HLA-A*33:01. The assay is described as above.
The next assay deals with HLA-B*54:01. The description is as above.
Another assay concerns the target HLA-A*31:01. The assay is described as above.
For a further assay, the target named is HLA-B*53:01. Described as above.
Another assay concerns the target HLA-A*68:01. The description is as above.
A further assay has as its target HLA-A*11:01. Described as above.
The target of assay [2] is HLA-A*03:01. The assay is described as above.
The target of assay [3] is HLA-B*51:01. The description is as above.
The next assay addresses HLA-B*35:01. Described as above.
The next assay has as its target HLA-B*07:02. The assay is described as above.
Assay [4] concerns the target HLA-A*02:01. Put plainly: IEDB peptide-MHC binding, purified MHC/competitive/fluorescence; filed as Kd, often an IC50 or EC50 that approximates it; ≥ and ≤ were set here for values at or beyond the usual limits of such assays.
The target in the next assay is HLA-B*08:01. Put plainly: IEDB peptide-MHC binding, purified MHC/competitive/radioactivity; filed as Kd, often an IC50 or EC50 that approximates it; ≥ and ≤ were set here for values at or beyond the usual limits of such assays.
The target in assay [5] is HLA-B*15:01. The assay is described as above.
A further assay addresses HLA-B*44:02. Described as above. The following applies: source organism: Dengue virus 4 Philippines/H241/1956.
The next assay concerns the target HLA-B*46:01. The experiment in a line: IEDB peptide-MHC binding, purified MHC/competitive/fluorescence; filed as Kd, often an IC50 or EC50 that approximates it; ≥ and ≤ were set here for values at or beyond the usual limits of such assays.
Assay [6] deals with HLA-A*03:01. The assay is described as above.
Assay [7] concerns the target HLA-B*51:01. The assay is described as above. The following applies: source organism: Helicobacter pylori 26695.
The next assay concerns the target HLA-B*39:01. The assay is described as above.
In a further assay the target is HLA-B*27:03. Described as above.
Assay [8] deals with HLA-B*15:01. The description is as above.
A further assay concerns the target HLA-B*18:01. Described as above.
For a further assay, the target named is HLA-B*57:01. Described as above.
Another assay deals with HLA-A*26:01. Described as above.
A further assay addresses HLA-A*30:01. The experiment in a line: IEDB peptide-MHC binding, purified MHC/competitive/radioactivity; filed as Kd, often an IC50 or EC50 that approximates it; ≥ and ≤ were set here for values at or beyond the usual limits of such assays. The following applies: source organism: Vaccinia virus WR.
The mark [9] stands for this setting: source organism: HIV-1 M:B_ARV2/SF2.
Where [10] appears, read: source organism: Triticum aestivum.
Where [11] appears, read: source organism: Lassa virus Josiah.
Where [12] appears, read: source organism: Vaccinia virus Copenhagen.
The mark [13] stands for this setting: source organism: Vaccinia virus WR.
Setting [14] is: source organism: Dengue virus 2 Jamaica/1409/1983.
The mark [15] stands for this setting: source organism: Dengue virus 4 Philippines/H241/1956.
The mark [16] stands for this setting: source organism: Dengue virus 1 Brazil/97-11/1997.
[17] abbreviates: source organism: Helicobacter pylori 26695.
Setting [18] is: source organism: Dengue virus 3 Martinique/1243/1999.
Where [19] appears, read: source organism: Camelpox virus CMS.

In the case of VIYQYMDDL, the Kd with HLA-A*02:03 (setting [9]) is 4.74 µM; with HLA-A*02:01 [1] (setting [9]), 5.84 µM; with HLA-A*68:02 (setting [9]), at least 56.2 µM; with HLA-A*02:06 (setting [9]), 7.68 µM; in the assay with HLA-A*02:02 (setting [9]), 0.156 µM.

In the case of LQQSTYQLV, the Kd is 0.0188 µM in the assay with HLA-A*02:03 (setting [10]); 0.0913 µM with HLA-A*02:01 [1] (setting [10]); at least 56.5 µM with HLA-A*68:02 (setting [10]); 0.0275 µM with HLA-A*02:06 (setting [10]); 0.436 µM with HLA-A*02:02 (setting [10]).

Take SIFLHLVKI: the Kd with HLA-A*02:01 [1] (setting [11]) was determined as 0.385 µM.

As for FLTSVINRV, the equilibrium dissociation constant (Kd) with HLA-A*02:03 (setting [12]) was 0.00563 µM; with HLA-A*33:01 (setting [12]), at least 77.7 µM; with HLA-B*54:01 (setting [12]), 0.904 µM; with HLA-A*31:01 (setting [12]), at least 77.9 µM; in the assay with HLA-B*53:01 (setting [12]), at least 61 µM; with HLA-A*68:01 (setting [12]), 9.6 µM. For the same sequence, the Kd was at least 77.9 µM with HLA-A*11:01 (setting [12]); at least 78 µM in the assay with HLA-A*03:01 [2] (setting [12]); at least 37.2 µM with HLA-B*51:01 [3] (setting [12]); 19 µM with HLA-B*35:01 (setting [12]); at least 77.5 µM in the assay with HLA-B*07:02 (setting [12]); 0.00166 µM with HLA-A*02:02 (setting [12]). Besides, the Kd in the assay with HLA-A*02:01 [4] (source organism: Variola virus) came out at 0.0035 µM.

As for SFKFRPGSL, the Kd with HLA-B*08:01 (setting [13]) amounted to 0.00298 µM.

In the case of LLSQRTRDI, the Kd with HLA-A*02:01 [1] (setting [11]) is 12.5 µM.

For the sequence LLKPRCNPA, the values for the Kd with HLA-B*15:01 [5] (setting [13]) and in the assay with HLA-B*08:01 (setting [13]) were 0.0206 µM and 0.00116 µM, respectively.

For the sequence ITASILLWYA, the Kd in the assay with HLA-A*68:02 (setting [14]) is 0.0124 µM; with HLA-A*02:06 (setting [14]) it was 0.00198 µM.

For the sequence DLNGAQIKL, the Kd in the assay with HLA-A*02:01 [1] (source organism: Homo sapiens) is at least 50.6 µM; in the assay with HLA-A*68:02 (source organism: Homo sapiens), 2.98 µM; in the assay with HLA-A*02:02 (source organism: Homo sapiens), 2.62 µM.

Take ELNDRFANYI: the Kd with HLA-A*68:02 (source organism: Homo sapiens) came out at 0.0116 µM; with HLA-A*02:02 (source organism: Homo sapiens), 0.0376 µM.

Consider TSAWVMYGT, for which the equilibrium dissociation constant (Kd) with HLA-A*68:02 (setting [15]) is 0.0017 µM.

With VSRQEKGKSL, the Kd with HLA-B*08:01 (source organism: Dengue virus 2 Peru/IQT2913/1996) worked out at 0.967 µM.

For the sequence IISTFHLSI, the Kd stood at 0.0139 µM with HLA-A*02:03 (setting [11]), 0.652 µM in the assay with HLA-A*68:02 (setting [11]), 0.264 µM with HLA-A*02:06 (setting [11]) and 0.236 µM with HLA-A*02:02 (setting [11]).

As to MEKLRIKGM, the Kd was determined as 1.26 µM with HLA-B*44:02 and 0.0208 µM with HLA-B*08:01 (setting [15]).

As to DLNLGNLN, the Kd with HLA-A*02:01 [1] (source organism: Hepatitis B virus subtype ayw) is at least 5 µM.

For the sequence NLYDHALMSI, the Kd with HLA-A*02:03 (setting [11]) is 0.000543 µM; with HLA-A*68:02 (setting [11]) it was 0.075 µM; with HLA-A*02:06 (setting [11]), 0.0231 µM; with HLA-A*02:02 (setting [11]), 0.00175 µM.

In the case of MQRKHGGML, the Kd worked out at 0.1 µM with HLA-B*15:01 [5] (setting [16]) and 0.17 µM with HLA-B*08:01 (setting [16]).

As to NRMEIFLVL, in the assay with HLA-B*08:01 (setting [12]), the Kd was 0.00485 µM.

In the case of TASLVMLLV, the Kd with HLA-A*68:02 (source organism: Dengue virus 4 Dominica/814669/1981) amounted to 0.0825 µM.

For ELEKTRRKL, the values for the Kd with HLA-A*68:02 (source organism: Homo sapiens) and in the assay with HLA-A*02:06 (source organism: Homo sapiens) were 6.99 µM and at least 45.2 µM, respectively.

SIFIRMLIL: in the assay with HLA-B*08:01 (setting [12]), the Kd is 0.0101 µM.

For EIASLPTYL, in the assay with HLA-A*68:02 (setting [15]), the dissociation constant Kd amounted to 0.00791 µM.

For the sequence NSTHEMYWV, the Kd with HLA-A*68:02 (setting [14]) turned out to be 0.0921 µM.

On to RLFTKVKPLL, for which the Kd with HLA-A*02:03 (source organism: Homo sapiens) was 0.096 µM; with HLA-A*68:02 (source organism: Homo sapiens), 13.6 µM; with HLA-A*02:06 (source organism: Homo sapiens), 4.04 µM.

Consider GIRPRFLSQ, for which the equilibrium dissociation constant (Kd) with HLA-B*08:01 (setting [12]) turned out to be 0.221 µM.

For the sequence GIVCYNEEV, the Kd is at least 20 µM with HLA-B*46:01 (setting [17]); 0.038 µM with HLA-A*02:01 [4] (setting [17]); at least 20 µM with HLA-A*03:01 [6] (setting [17]); at least 20 µM with HLA-B*51:01 [7]; at least 20 µM with HLA-B*39:01 (setting [17]); at least 20 µM with HLA-B*27:03 (setting [17]). The Kd with HLA-B*15:01 [8] (setting [17]), in the assay with HLA-B*18:01 (setting [17]), in the assay with HLA-B*57:01 (setting [17]) and in the assay with HLA-A*26:01 (setting [17]) was at least 20 µM throughout.

As for MSIISFFPF, the Kd with HLA-B*15:01 [5] (setting [13]) came out at 0.000168 µM; with HLA-B*08:01 (setting [13]) it was 0.857 µM.

In the case of SRISRFANL, in the assay with HLA-B*08:01 (setting [13]), the Kd came out at 0.0196 µM.

For FLLLCGRSCT, the Kd with HLA-A*02:01 [1] (setting [11]) was at least 25 µM.

TVVVGDIIGV: the Kd in the assay with HLA-A*68:02 (setting [18]) turned out to be 0.00187 µM; in the assay with HLA-A*02:06 (setting [18]), 0.00244 µM.

For MTIREFPRK, the Kd with HLA-A*02:03 (setting [13]) is at least 78.1 µM; with HLA-A*02:01 [1] (setting [13]), at least 78.1 µM; with HLA-A*33:01 (setting [13]), 1.38 µM; with HLA-B*54:01 (setting [13]) it was at least 78.1 µM; with HLA-A*31:01 (setting [13]), 0.0998 µM; in the assay with HLA-B*53:01 (setting [13]) it was at least 78.2 µM. Further, the Kd in the assay with HLA-A*68:01 (setting [13]) is 0.00619 µM; in the assay with HLA-A*68:02 (setting [13]), 3.32 µM; in the assay with HLA-A*11:01 (setting [13]) it was 0.00392 µM; with HLA-A*03:01 [2] (setting [13]), 0.00627 µM; with HLA-B*51:01 [3] (setting [13]), at least 77.5 µM; in the assay with HLA-A*30:01, 0.00159 µM. The Kd in the assay with HLA-B*35:01 (setting [13]) is at least 77.4 µM; with HLA-B*07:02 (setting [13]) it was at least 77.5 µM; with HLA-A*02:06 (setting [13]) it was at least 65.6 µM; with HLA-A*02:02 (setting [13]), at least 77.8 µM.

For the sequence YAKSKRMAE, the Kd in the assay with HLA-B*08:01 (setting [13]) was determined as 0.0311 µM.

For the sequence IMAVGLVSLL, the Kd with HLA-B*08:01 (setting [15]) is 0.863 µM.

In the case of WVIDTLNGI, the Kd is at least 20 µM with HLA-B*46:01 (setting [19]); 0.0074 µM with HLA-A*02:01 [4] (setting [19]); at least 20 µM with HLA-A*03:01 [6] (setting [19]); at least 20 µM with HLA-B*39:01 (setting [19]); at least 20 µM in the assay with HLA-B*27:03 (setting [19]); at least 20 µM with HLA-B*15:01 [8] (setting [19]). Further, the equilibrium dissociation constant (Kd) in the assay with HLA-B*18:01 (setting [19]), in the assay with HLA-B*57:01 (setting [19]) and in the assay with HLA-A*26:01 (setting [19]) was at least 20 µM throughout.
